The values that follow are results of earlier work, collected in publication PMC5727865.

pKd: −log10 of the molar value.

The term pKd denotes −log10 of the Kd, conventionally taken in molar units.

For this data set, the target named is gp120 gp120 (Human immunodeficiency virus 1) (UniProt O70902).
UniProt O70902, sequence (O70902 29-500): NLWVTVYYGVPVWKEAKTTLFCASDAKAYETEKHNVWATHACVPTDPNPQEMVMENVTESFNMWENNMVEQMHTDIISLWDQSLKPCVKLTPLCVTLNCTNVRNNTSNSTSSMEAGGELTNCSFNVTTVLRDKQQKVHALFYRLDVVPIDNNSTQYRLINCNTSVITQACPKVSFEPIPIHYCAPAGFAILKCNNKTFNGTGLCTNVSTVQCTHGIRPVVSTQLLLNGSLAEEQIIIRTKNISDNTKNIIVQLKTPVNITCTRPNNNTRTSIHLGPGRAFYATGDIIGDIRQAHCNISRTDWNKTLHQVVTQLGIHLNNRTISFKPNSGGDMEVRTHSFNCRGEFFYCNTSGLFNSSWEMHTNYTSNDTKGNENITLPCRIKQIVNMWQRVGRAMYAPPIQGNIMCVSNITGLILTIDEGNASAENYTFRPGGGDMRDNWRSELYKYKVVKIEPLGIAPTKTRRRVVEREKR

For DC-SIGN (from UniProt Q9NNX6), the negative logarithm of the Kd (pKd) is 8.77.
